Test results reported in PMC7069974.

Target: His-flXPA (human) (UniProt P23025)
Assay: AFM
Conditions: single dG-C8-AAF at 30% from 3' end; EMSA: 8 nM DNA, 20 mM HEPES pH 7.5, 150 mM NaCl, 5 mM DTT, 0.5 mg/ml BSA, 5% glycerol, 25 min at room temperature; gel 5% native, 0.5x TBE, 4 C. AFM: 100 nM …; scale: fold specificity for dG-C8-AAF over non-damaged DNA

His-flXPA (human), sequence (P23025 whole entry): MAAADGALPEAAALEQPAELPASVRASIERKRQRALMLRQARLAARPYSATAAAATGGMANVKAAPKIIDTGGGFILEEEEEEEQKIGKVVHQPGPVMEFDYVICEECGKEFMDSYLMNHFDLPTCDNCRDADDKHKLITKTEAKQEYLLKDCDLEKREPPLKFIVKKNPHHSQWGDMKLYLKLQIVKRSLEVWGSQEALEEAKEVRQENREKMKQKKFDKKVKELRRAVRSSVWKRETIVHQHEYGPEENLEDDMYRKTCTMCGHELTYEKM

AAF538
binding signal: 660
